Measurements as given in paper doi:10.1101/2022.03.18.484873 (bioRxiv, 2022).

Biological target: original 2019-nCoV Spike RBD protein (SARS-CoV-2, original 2019-nCoV (Wuhan), UniProt P0DTC2)
Assay: Luminex bead-based competitive binding assay

| Binder | binding result |
| --- | --- |
| P2G3 human monoclonal antibody (P2G3 LS, human IgG1) (antibody, V domains shown) VH: EVQLVESGGGLVQPGRSLRLSCAASGFRFDDYALHWVRQAPEKGLEWVSGISWNSNNIGYAESVKGRFTISRDTAKKSLYLQMNDLRAEDTALYYCVKDRHYDSSGYFVNGFDIWGQGTLVTVSA VL: DIQLTQSPSFLSASVGDRVTVTCRASQGISSYVAWYQQKAGKAPTLLIYTASTLQSGVPSRFSGSGSGTEFTLTISSLQPEDFATYYCQQLHSYPVTFGQGTRLDIE | binds |
| P5C3 human monoclonal antibody (P5C3 LS) (antibody, V domains shown) VH: QMQLVQSGPEVKKPGTSVKVSCKASGFTFTSSAVQWVRQARGQRLEWIGWIVVGSGNTDYAQQFQERVTITRDMSTSTAYMELSSLGSEDTAVYYCAAPNCSGGSCYDGFDLWGQGTMVTVSS VL: EIVLTQSPGTLSLSPGERATLSCRGSQSVRSSYLGWYQQKPGQAPRLLIYGASSRATGIPDRFSGSGSGTDFTLTISRLEPEDFAVYYCQQYGSSPWTFGQGTKVEIK | binds |
